Results on ten molecules are retold here after patent US20180155451A1 (published 2018).

In one assay the target is T1, FcγRIa (human, UniProt P12314 16-292).
T1 construct: extracellular domain; also called FcgRI; 1a
In words: SPR, captured antibody; relative to GpH7-A5/GpH7-B3/GpL16-k0.

Another assay concerns the target T2, FcγRIIb (human, UniProt P31994 43-217).
T2 construct: extracellular domain; also called FcgRIIb; 2b
T2 sequence (looked up): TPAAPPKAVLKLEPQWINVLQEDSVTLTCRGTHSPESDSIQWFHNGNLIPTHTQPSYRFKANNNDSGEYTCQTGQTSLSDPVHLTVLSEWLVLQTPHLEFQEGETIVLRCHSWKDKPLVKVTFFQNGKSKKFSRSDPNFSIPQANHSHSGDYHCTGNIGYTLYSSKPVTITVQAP
The description is as above.

T1 sequence (P12314 16-292): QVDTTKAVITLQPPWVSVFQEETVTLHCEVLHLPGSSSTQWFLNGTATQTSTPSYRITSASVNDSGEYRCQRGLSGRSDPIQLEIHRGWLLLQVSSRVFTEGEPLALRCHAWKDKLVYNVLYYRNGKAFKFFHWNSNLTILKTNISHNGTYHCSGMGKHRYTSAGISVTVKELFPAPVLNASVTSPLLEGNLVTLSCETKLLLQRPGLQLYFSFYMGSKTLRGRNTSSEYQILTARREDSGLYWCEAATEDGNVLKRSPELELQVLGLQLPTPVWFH

B1: GpH7-A5/GpH7-B3 variant (L234_13S)/GpL16-k0 (antibody, human IgG1, kappa)
heavy 1: not shown
heavy 2: not shown
light: DIVMTQSPLSLPVTPGEPASISCQASESLVHSNRNTYLHWYLQKPGQSPQLLIYKVSNRFSGVPDRFSGSGSGTDFTLKISRVEAEDVGVYYCSQNTHVPPTFGQGTKVEIERTVAAPSVFIFPPSDEQLKSGTASVVCLLNNFYPREAKVQWKVDNALQSGNSQESVTEQDSKDSTYSLSSTLTLSKADYEKHKVYACEVTHQGLSSPVTKSFNRGEC
notes: IgG1 heterodimer, mutation in the GpH7-B3 chain only; also called He Ab
For the molecule B1, the He/Con_1a in the assay with FcγRIa was 96.9 relative, HeCon Ab = 100. For the same molecule, in the assay with FcγRIIb, the He/Con_2b is 59.3 relative, HeCon Ab = 100.

B2: GpH7-A5/GpH7-B3 variant (H268_12R)/GpL16-k0 (antibody, human IgG1, kappa)
heavy 1: not shown
heavy 2: not shown
light: DIVMTQSPLSLPVTPGEPASISCQASESLVHSNRNTYLHWYLQKPGQSPQLLIYKVSNRFSGVPDRFSGSGSGTDFTLKISRVEAEDVGVYYCSQNTHVPPTFGQGTKVEIERTVAAPSVFIFPPSDEQLKSGTASVVCLLNNFYPREAKVQWKVDNALQSGNSQESVTEQDSKDSTYSLSSTLTLSKADYEKHKVYACEVTHQGLSSPVTKSFNRGEC
notes: as for B1
With B2, the He/Con_1a with FcγRIa was 106 relative, HeCon Ab = 100. In the assay with FcγRIIb, the He/Con_2b was 89.8 relative, HeCon Ab = 100.

B3: GpH7-A5/GpH7-B3 variant (L234_12R)/GpL16-k0 (antibody, human IgG1, kappa)
heavy 1: not shown
heavy 2: not shown
light: DIVMTQSPLSLPVTPGEPASISCQASESLVHSNRNTYLHWYLQKPGQSPQLLIYKVSNRFSGVPDRFSGSGSGTDFTLKISRVEAEDVGVYYCSQNTHVPPTFGQGTKVEIERTVAAPSVFIFPPSDEQLKSGTASVVCLLNNFYPREAKVQWKVDNALQSGNSQESVTEQDSKDSTYSLSSTLTLSKADYEKHKVYACEVTHQGLSSPVTKSFNRGEC
notes: as for B1
As to B3, in the assay with FcγRIa, the He/Con_1a was 91.8 relative, HeCon Ab = 100. In addition, the He/Con_2b with FcγRIIb is 18.9 relative, HeCon Ab = 100.

B4: GpH7-A5/GpH7-B3 variant (L234_16H)/GpL16-k0 (antibody, human IgG1, kappa)
heavy 1: not shown
heavy 2: not shown
light: DIVMTQSPLSLPVTPGEPASISCQASESLVHSNRNTYLHWYLQKPGQSPQLLIYKVSNRFSGVPDRFSGSGSGTDFTLKISRVEAEDVGVYYCSQNTHVPPTFGQGTKVEIERTVAAPSVFIFPPSDEQLKSGTASVVCLLNNFYPREAKVQWKVDNALQSGNSQESVTEQDSKDSTYSLSSTLTLSKADYEKHKVYACEVTHQGLSSPVTKSFNRGEC
notes: as for B1
Take B4: the He/Con_1a in the assay with FcγRIa is 94 relative, HeCon Ab = 100. Besides, in the assay with FcγRIIb, the He/Con_2b was 59.4 relative, HeCon Ab = 100.

B5: GpH7-A5/GpH7-B3 variant (L234_07I)/GpL16-k0 (antibody, human IgG1, kappa)
heavy 1: not shown
heavy 2: not shown
light: DIVMTQSPLSLPVTPGEPASISCQASESLVHSNRNTYLHWYLQKPGQSPQLLIYKVSNRFSGVPDRFSGSGSGTDFTLKISRVEAEDVGVYYCSQNTHVPPTFGQGTKVEIERTVAAPSVFIFPPSDEQLKSGTASVVCLLNNFYPREAKVQWKVDNALQSGNSQESVTEQDSKDSTYSLSSTLTLSKADYEKHKVYACEVTHQGLSSPVTKSFNRGEC
notes: as for B1
Regarding B5, the He/Con_1a with FcγRIa is 103 relative, HeCon Ab = 100. In the assay with FcγRIIb, the He/Con_2b was 80.9 relative, HeCon Ab = 100.

B6: GpH7-A5/GpH7-B3 variant (L234_02A)/GpL16-k0 (antibody, human IgG1, kappa)
heavy 1: not shown
heavy 2: not shown
light: DIVMTQSPLSLPVTPGEPASISCQASESLVHSNRNTYLHWYLQKPGQSPQLLIYKVSNRFSGVPDRFSGSGSGTDFTLKISRVEAEDVGVYYCSQNTHVPPTFGQGTKVEIERTVAAPSVFIFPPSDEQLKSGTASVVCLLNNFYPREAKVQWKVDNALQSGNSQESVTEQDSKDSTYSLSSTLTLSKADYEKHKVYACEVTHQGLSSPVTKSFNRGEC
notes: as for B1
B6: in the assay with FcγRIa, the He/Con_1a was 97.5 relative, HeCon Ab = 100. Besides, in the assay with FcγRIIb, the He/Con_2b is 64.9 relative, HeCon Ab = 100.

B7: GpH7-A5/GpH7-B3 variant (L234_03V)/GpL16-k0 (antibody, human IgG1, kappa)
heavy 1: not shown
heavy 2: not shown
light: DIVMTQSPLSLPVTPGEPASISCQASESLVHSNRNTYLHWYLQKPGQSPQLLIYKVSNRFSGVPDRFSGSGSGTDFTLKISRVEAEDVGVYYCSQNTHVPPTFGQGTKVEIERTVAAPSVFIFPPSDEQLKSGTASVVCLLNNFYPREAKVQWKVDNALQSGNSQESVTEQDSKDSTYSLSSTLTLSKADYEKHKVYACEVTHQGLSSPVTKSFNRGEC
notes: as for B1
B7: the He/Con_1a with FcγRIa is 104 relative, HeCon Ab = 100. The He/Con_2b in the assay with FcγRIIb was 73.1 relative, HeCon Ab = 100.

B8: GpH7-A5/GpH7-B3 variant (L234_06M)/GpL16-k0 (antibody, human IgG1, kappa)
heavy 1: not shown
heavy 2: not shown
light: DIVMTQSPLSLPVTPGEPASISCQASESLVHSNRNTYLHWYLQKPGQSPQLLIYKVSNRFSGVPDRFSGSGSGTDFTLKISRVEAEDVGVYYCSQNTHVPPTFGQGTKVEIERTVAAPSVFIFPPSDEQLKSGTASVVCLLNNFYPREAKVQWKVDNALQSGNSQESVTEQDSKDSTYSLSSTLTLSKADYEKHKVYACEVTHQGLSSPVTKSFNRGEC
notes: as for B1
Turning to B8, in the assay with FcγRIa, the He/Con_1a is 104 relative, HeCon Ab = 100. In addition, the He/Con_2b with FcγRIIb was 78.5 relative, HeCon Ab = 100.

B9: GpH7-A5/GpH7-B3 variant (L234_11K)/GpL16-k0 (antibody, human IgG1, kappa)
heavy 1: not shown
heavy 2: not shown
light: DIVMTQSPLSLPVTPGEPASISCQASESLVHSNRNTYLHWYLQKPGQSPQLLIYKVSNRFSGVPDRFSGSGSGTDFTLKISRVEAEDVGVYYCSQNTHVPPTFGQGTKVEIERTVAAPSVFIFPPSDEQLKSGTASVVCLLNNFYPREAKVQWKVDNALQSGNSQESVTEQDSKDSTYSLSSTLTLSKADYEKHKVYACEVTHQGLSSPVTKSFNRGEC
notes: as for B1
As to B9, the He/Con_1a with FcγRIa was 91.8 relative, HeCon Ab = 100. Moreover, the He/Con_2b with FcγRIIb is 16.2 relative, HeCon Ab = 100.

B10: GpH7-A5/GpH7-B3 variant (H268_14T)/GpL16-k0 (antibody, human IgG1, kappa)
heavy 1: not shown
heavy 2: not shown
light: DIVMTQSPLSLPVTPGEPASISCQASESLVHSNRNTYLHWYLQKPGQSPQLLIYKVSNRFSGVPDRFSGSGSGTDFTLKISRVEAEDVGVYYCSQNTHVPPTFGQGTKVEIERTVAAPSVFIFPPSDEQLKSGTASVVCLLNNFYPREAKVQWKVDNALQSGNSQESVTEQDSKDSTYSLSSTLTLSKADYEKHKVYACEVTHQGLSSPVTKSFNRGEC
notes: as for B1
For B10, the He/Con_1a with FcγRIa was 112 relative, HeCon Ab = 100. Also, the He/Con_2b with FcγRIIb was 86 relative, HeCon Ab = 100.
